Laboratory results as given in patent publication US20150098945A1 (Daiichi Sankyo, published 2015).

T1: N-terminal FLAG-tagged cynomolgus monkey ROBO4, cynoROBO4-2 (pCI-FLAG-cynoROBO4-2) (cynomolgus monkey, UniProt Q8WZ75 28-1007 (human entry))
T1 chain: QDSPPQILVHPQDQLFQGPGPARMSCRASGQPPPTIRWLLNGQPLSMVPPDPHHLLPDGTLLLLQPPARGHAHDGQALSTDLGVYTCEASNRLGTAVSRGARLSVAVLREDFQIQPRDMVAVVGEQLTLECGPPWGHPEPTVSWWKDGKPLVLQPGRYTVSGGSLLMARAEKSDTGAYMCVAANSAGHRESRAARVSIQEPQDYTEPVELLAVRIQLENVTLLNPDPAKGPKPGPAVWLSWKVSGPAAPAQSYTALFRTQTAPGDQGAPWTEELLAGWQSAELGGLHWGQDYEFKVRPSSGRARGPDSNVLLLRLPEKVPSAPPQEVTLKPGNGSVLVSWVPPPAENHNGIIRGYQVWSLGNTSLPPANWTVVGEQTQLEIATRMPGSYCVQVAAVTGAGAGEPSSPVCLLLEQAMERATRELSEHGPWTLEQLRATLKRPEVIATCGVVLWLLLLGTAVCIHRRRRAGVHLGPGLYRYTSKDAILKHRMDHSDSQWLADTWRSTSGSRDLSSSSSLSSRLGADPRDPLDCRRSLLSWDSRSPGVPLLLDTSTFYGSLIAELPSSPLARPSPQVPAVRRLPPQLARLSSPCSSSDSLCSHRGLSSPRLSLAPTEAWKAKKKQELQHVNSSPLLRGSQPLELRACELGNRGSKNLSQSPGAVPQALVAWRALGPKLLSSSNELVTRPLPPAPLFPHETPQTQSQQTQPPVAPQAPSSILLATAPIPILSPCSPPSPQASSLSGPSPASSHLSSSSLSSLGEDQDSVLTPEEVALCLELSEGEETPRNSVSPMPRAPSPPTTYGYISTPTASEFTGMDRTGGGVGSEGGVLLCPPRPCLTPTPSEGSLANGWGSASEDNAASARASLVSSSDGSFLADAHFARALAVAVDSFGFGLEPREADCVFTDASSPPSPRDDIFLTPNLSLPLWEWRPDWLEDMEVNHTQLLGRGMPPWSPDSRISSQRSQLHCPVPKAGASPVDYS

B1: anti-ROBO4 mouse monoclonal antibody MAb1 (antibody, mouse IgG1, V domains shown)
VH: EVQLVESGGGLVKPGGSLKLSCAASGFTFSTYAMSWVRQTPEKRLEWVATISNGGTYTYYPDSVKGRFTISRDNAENTLYLQMSSLRSEDTAMYFCARLIYYDYLDYWGHGTTLTVSS
VL: DAVMTQTPLSLPVSLGDQASISCRSSQSLENSNGNTYLNWYFQKPGQSPQLLIYRVSNRFSGVLDRFSGSGSGTDFTLKISRVEAEDFGVYFCLQVTHVPWTFGGGTKLEIKR
notes: Mouse IgG1 (gamma1), kappa light chain, purified from hybridoma supernatant; also called parent antibody MAb1
B2: humanized MAb1 antibody H-1140 (antibody, human IgG2, kappa, V domains shown)
VH: EVQLVESGGGLVQPGGSLRLSCAASGFTFSTYAMSWVRQAPGKGLEWVATISQGGTYTYYPDSVKGRFTISRDNAKNTLYLQMNSLRAEDTAVYYCARLIYYDYLDYWGQGTLVTVSS
VL: DIVMTQSPLSLPVTLGEPASISCRSSQSLENSNGNTYLNWYLQKPGQSPQLLIYRVSNRFSGVPDRFSGSGSGTDFTLKISRVEAEDVGVYYCLQVTHVPWTFGPGTKVDIKR
notes: Human IgG2 / kappa constant regions; also called hMAb1-H2-type heavy chain + hMAb1-L1-type light chain

How the values were obtained:
[1] = target: T2, N-terminal FLAG-tagged human ROBO1 (pCI-FLAG-hROBO1-transfected HEK293 cells) (human, UniProt Q9Y6N7 58-1651); assay: flow cytometry, HEK293 cells transfected with pCI-FLAG-hROBO1, anti-mouse IgG FITC; control histogram IgG
T2 sequence (Q9Y6N7 other isoform, or with tags, fused parts or gaps): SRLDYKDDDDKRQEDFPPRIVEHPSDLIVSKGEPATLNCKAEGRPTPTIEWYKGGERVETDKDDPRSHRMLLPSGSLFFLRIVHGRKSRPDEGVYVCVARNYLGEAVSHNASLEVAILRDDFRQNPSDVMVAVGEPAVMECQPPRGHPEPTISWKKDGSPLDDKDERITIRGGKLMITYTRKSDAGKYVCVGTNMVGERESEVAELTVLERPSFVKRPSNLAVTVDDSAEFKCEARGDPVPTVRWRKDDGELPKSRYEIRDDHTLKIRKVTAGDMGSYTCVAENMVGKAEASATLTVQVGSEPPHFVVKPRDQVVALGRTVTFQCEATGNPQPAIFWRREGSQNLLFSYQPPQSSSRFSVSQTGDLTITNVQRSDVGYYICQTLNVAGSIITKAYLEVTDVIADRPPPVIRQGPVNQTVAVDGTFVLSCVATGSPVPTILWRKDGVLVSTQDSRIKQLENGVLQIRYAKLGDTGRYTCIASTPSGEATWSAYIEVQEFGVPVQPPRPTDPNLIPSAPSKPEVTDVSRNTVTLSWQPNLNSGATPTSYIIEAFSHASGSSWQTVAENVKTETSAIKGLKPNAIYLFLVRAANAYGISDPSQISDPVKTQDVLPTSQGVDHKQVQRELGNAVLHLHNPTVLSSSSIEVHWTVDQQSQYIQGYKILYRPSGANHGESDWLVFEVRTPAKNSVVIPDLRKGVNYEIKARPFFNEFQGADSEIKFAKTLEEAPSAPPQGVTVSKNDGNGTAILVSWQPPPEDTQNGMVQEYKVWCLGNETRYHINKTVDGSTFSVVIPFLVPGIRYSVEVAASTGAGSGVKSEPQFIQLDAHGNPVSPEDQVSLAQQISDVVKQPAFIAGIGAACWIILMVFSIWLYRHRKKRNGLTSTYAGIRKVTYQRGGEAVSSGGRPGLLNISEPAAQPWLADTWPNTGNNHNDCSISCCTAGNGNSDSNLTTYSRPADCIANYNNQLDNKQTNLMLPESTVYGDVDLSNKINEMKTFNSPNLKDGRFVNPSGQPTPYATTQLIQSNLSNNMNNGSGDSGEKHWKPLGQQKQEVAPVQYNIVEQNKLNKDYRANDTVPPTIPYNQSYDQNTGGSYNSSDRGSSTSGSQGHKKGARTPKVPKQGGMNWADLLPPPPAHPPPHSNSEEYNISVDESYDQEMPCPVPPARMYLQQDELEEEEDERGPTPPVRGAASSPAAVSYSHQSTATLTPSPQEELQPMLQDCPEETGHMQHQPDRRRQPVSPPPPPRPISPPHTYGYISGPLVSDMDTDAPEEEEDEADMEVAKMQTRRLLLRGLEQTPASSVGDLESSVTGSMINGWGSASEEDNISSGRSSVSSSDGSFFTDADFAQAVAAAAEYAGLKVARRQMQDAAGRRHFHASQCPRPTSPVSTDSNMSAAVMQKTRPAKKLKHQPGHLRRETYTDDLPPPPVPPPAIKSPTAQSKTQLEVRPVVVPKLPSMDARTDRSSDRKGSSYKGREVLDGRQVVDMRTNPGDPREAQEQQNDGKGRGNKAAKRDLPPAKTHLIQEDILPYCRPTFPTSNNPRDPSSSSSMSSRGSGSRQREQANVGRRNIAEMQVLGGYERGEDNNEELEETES
Experimental: HEK293 cells were inoculated at a concentration of 1.2×10⁶ cells/dish or 1.5×10⁶ cells/dish to a 60-mm dish (manufactured by Corning Inc.) and cultured overnight in a DMEM medium containing 10% FBS at 37° C. under 5% CO₂ conditions. On the next day, the HEK293 cells were transfected with pCI-hROBO4, pCI-FLAG-hROBO1, pCI-hROBO2, or pCI-hROBO3 using FuGENE6 Transfection Reagent and further cultured overnight at 37° C. under 5% CO₂ conditions. On the next day, the expression vector-transfected cells were treated with TrypLE Express (manufactured by Life Technologies Corp.), washed with PBS containing 5% FBS, and then suspended in PBS containing 5% FBS. The obtained cell suspension was used in flow cytometry analysis.
Each cell suspension prepared in 4)-4-1 was centrifuged, and the supernatant was removed. […] Data was analyzed using Flowjo. The histogram of FITC fluorescence intensity was prepared. The antibody was determined to bind in a specific manner when the histogram of MAb1 was shifted to a stronger fluorescence intensity region compared with the histogram of the negative control Mouse IgG1 or Mouse IgG2a. […]

[2] = target: T1, N-terminal FLAG-tagged cynomolgus …; assay: flow cytometry on transfected HEK293 cells
[3] = target: T2, N-terminal FLAG-tagged human ROBO1 …; assay: flow cytometry on transfected HEK293 cells

Binder | binding result [1] | binding result [2] | binding result [3]
B1 | no binding (tested: 10 µg/mL) | – | –
B2 | – | binds | no binding (tested: 10 µg/mL (method of 4)-4-2))
